From patent US20050123911A1, “Method of mass spectrometry” (priority 2001, published 2005) come the findings set out here.

Values joined by “and” are separate entries in the source; they are usually repeats but may differ in a detail not shown here. Equal values may be shown once. Gly∗ = not defined here; Ac∗ = not defined here

For test [1], the target named is T1, neutral endopeptidase (NEP) (Homo sapiens, UniProt P08473).
T1 construct: purchased BioMep
Description: Incubation of DiMaS peptides with NEP, LC-MS analysis. In kind it is biochemical. To be noted: room temperature, 9 h, HPLC/MS. As to the method: The peptide (10 μl of 1 mM in Acetonitrile) was treated with a solution of buffer (50 mM HEPES, 150 mM NaCl and 1 μM Zn^2+, 35 μl), and finally neutral endopeptidase (NEP) was added (5 μl, 2.5 μM). The reaction was allowed to take place at room temperature for 9 h and an aliquot of solution was removed for LC-MS analysis.
Peptides 4, 6 and 10 were incubated with NEP as described above and then analysed by HPLC/MS to give masses according to Table 1.

The target of a further test is T2, Trypsin (Bos taurus, UniProt P00760).
T2 construct: purchased Sigma T1426
T2 sequence (P00760 24-246): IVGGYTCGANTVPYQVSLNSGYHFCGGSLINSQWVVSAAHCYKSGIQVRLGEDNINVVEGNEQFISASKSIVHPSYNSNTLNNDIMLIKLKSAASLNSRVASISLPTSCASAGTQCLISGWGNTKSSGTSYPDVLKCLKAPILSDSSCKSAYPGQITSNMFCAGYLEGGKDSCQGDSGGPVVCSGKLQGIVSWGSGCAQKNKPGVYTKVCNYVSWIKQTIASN
The test can be described thus: Incubation of single DiMaS peptides with trypsin, LC-MS analysis. In kind it is biochemical. The following applies: for Cleaved fragment identified after incubation with Trypsin (Table 1) / Cleavage site on incubation with Trypsin: room temperature, 9 h; for Cleaved fragment identified after incubation with Trypsin (Table 1): HPLC/MS; for Cleaved sequence following incubation with trypsin (FIG. 13): mass spectrum; for Cleavage site on incubation with Trypsin: aliquot every 2 h, LC-MS. Here is the method:
The peptide (10 μl of 1 mM in Acetonitrile) was treated with a solution of buffer (50 mM HEPES, 150 mM NaCl and 1 μM Zn^2+, 35 μl), and finally Trypsin was added (5 μl, 2.5 μM). The reaction was allowed to take place at room temperature for 9 h and an aliquot of solution was removed for LC-MS analysis.
Peptides 4 and 10 were incubated with trypsin as described above and then analysed by HPLC/MS to give masses according to Table 1.
Compounds 7(2) and 7(13) (10 μl in Acetonitrile) were treated with a solution of buffer (50 mM HEPES, 150 mM NaCl and 1 μM Zn^2+, 35 μl), and finally Trypsin was added (5 μl, 2.5 μM). The reaction was allowed to take place at room temperature for 9 h and an aliquot of solution was removed for LC-MS analysis every 2 h.

T1 sequence (P08473 whole entry, species assumed): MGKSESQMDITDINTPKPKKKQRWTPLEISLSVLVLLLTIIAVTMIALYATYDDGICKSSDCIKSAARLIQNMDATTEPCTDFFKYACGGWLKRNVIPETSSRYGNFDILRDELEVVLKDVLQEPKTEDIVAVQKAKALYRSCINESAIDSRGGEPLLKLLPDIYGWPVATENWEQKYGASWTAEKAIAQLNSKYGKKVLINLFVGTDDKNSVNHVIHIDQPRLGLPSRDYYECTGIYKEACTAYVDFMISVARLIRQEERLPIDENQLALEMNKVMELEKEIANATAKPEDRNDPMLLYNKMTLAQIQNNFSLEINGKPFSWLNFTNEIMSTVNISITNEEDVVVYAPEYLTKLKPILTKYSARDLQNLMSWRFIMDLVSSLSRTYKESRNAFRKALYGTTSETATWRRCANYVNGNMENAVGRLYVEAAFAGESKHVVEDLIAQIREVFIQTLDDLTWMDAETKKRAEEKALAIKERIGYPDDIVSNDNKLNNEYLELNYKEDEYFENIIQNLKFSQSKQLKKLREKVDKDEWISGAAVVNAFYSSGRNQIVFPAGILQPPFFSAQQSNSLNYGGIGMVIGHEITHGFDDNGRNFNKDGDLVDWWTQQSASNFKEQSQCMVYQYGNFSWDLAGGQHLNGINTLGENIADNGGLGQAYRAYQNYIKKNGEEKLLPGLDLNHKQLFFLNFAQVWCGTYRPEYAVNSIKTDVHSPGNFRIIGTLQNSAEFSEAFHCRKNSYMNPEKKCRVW

Take “AcGly-Pro-Arg-Ala-Ala-Ala-Gly-NH2 (Ac-GPRAAAG-NH2; also: partly isotope-labelled (D in acetyl and a Gly), extent not given here) [Peptide 4]”: the “Cleaved fragment identified after incubation with NEP (Table 1)” value in test [1] was “AcGlyProArgAlaOH and 239, 241: H2NAlaAlaGlyNH2”. The “Cleaved fragment identified after incubation with Trypsin (Table 1)” value with Trypsin was 371, 374: AcGlyProArgOH and H2NalaAlaAlaGlyNH2.

In the case of “Ac-Gly* Ala Gly Arg Ala Asn Ile Asp Phe Ala Lys(Ac*)-NH2 ({Ac-Gly∗}-AGRANIDFAK(Ac∗)-NH2; reading uncertain; also: isotope labels: Gly* with D2 or H2, Ac* with D3 or H3, printed as Ac-Gly* Ala Gly Arg Ala Asn Ile Asp Phe Ala Lys(Ac*)-NH2) [7(2)]”, in the test with Trypsin, the “Cleaved sequence following incubation with trypsin (FIG. 13)” value is given as “H2N-Ala-Asn-Ile-Asp-Phe-Ala-Lys(ac)-NH2” and the “Cleavage site on incubation with Trypsin” value is “cleavage after the arginine residue”.

Consider “Ac-Gly* Ala Phe Leu Ala Arg Asn Ile Asp Leu Lys(Ac*)-NH2 ({Ac-Gly∗}-AFLARNIDLK(Ac∗)-NH2; reading uncertain; also: isotope labels: Gly* with D2 or H2, Ac* with D3 or H3, printed as Ac-Gly* Ala Phe Leu Ala Arg Asn Ile Asp Leu Lys(Ac*)-NH2) [7(13)]”, for which the “Cleavage site on incubation with Trypsin” value in the test with Trypsin is reported as “cleavage after the arginine residue”.

Regarding “AcHis-His-Gln-Lys-Leu-Val-Phe-Phe-Ala-Gly-NH2 (Ac-HHQKLVFFAG-NH2; also: partly isotope-labelled (D in acetyl and a Gly), extent not given here) [Peptide 10]”, in test [1], the “Cleaved fragment identified after incubation with NEP (Table 1)” value was “AcHisHisGlnLysLeuOH and 315, 317: NH2PheAlaGlyNH2”. In the test with Trypsin, the “Cleaved fragment identified after incubation with Trypsin (Table 1)” value was 591, 594 AcHisHisGlnLysOH and H2NleuValPhePheAlaGlyNH2.

On to “Ac-Gly* Ala Ala Phe Lys Arg Ala Gly Ala Ala Lys(Ac*)-NH2 ({Ac-Gly∗}-AAFKRAGAAK(Ac∗)-NH2; reading uncertain; also: isotope labels: Gly* with D2 or H2, Ac* with D3 or H3, printed as Ac-Gly* Ala Ala Phe Lys Arg Ala Gly Ala Ala Lys(Ac*)-NH2) [7(17)]”, for which the “Cleaved sequence following incubation with trypsin (FIG. 13)” value in the test with Trypsin was “Ac-Gly-Ala-Ala-Phe-Lys-Arg-OH”.

Regarding “AcSer-Glu-Val-Asn-Leu-Asp-Ala-Glu-Phe-Gly-NH2 (Ac-SEVNLDAEFG-NH2; also: partly isotope-labelled (D in acetyl and a Gly), extent not given here) [Peptide 6]”, the “Cleaved fragment identified after incubation with NEP (Table 1)” value in test [1] was “H2NleuAspAlaGluPheGlyNH2”.
